Measured values taken from US20140178899.

T1: mutant BH3 peptide (aa 108-127) in which Thr119 was substituted to alanine (T119A)
T1 chain: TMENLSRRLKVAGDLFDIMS

T2: peptide corresponding to Beclin's BH3 domain (aa 108-127)
T2 chain: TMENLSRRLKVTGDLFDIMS


Tests used:
[1] = molecular target: Flag-tagged Beclin-1 (wild type)
[2] = molecular target: GST protein (GST alone) [GST: P08515]
[3] = molecular target: GST-Beclin-1 fusion protein (wild type, bacterially purified, not phosphorylated)
[4] = molecular target: T1, mutant BH3 peptide (aa 108-127) in …
[5] = molecular target: T2, peptide corresponding to Beclin's BH3 …

Chain of GST-Beclin-1 fusion protein (wild type, bacterially purified, not phosphorylated) (chain, as listed by the source): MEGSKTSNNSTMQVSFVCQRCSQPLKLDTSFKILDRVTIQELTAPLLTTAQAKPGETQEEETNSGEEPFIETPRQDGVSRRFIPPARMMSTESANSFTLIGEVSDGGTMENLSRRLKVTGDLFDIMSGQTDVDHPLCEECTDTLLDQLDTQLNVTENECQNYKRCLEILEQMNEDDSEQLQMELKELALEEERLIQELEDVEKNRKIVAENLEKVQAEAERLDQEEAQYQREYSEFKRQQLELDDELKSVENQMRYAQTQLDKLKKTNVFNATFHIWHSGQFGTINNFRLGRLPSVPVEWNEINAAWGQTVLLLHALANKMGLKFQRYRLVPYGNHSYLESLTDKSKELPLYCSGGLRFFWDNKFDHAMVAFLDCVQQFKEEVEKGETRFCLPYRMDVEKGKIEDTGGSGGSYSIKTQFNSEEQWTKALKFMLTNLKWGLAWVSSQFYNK
Chain of GST protein (GST alone) [GST: P08515] (P08515 whole entry, the tested form may be a part): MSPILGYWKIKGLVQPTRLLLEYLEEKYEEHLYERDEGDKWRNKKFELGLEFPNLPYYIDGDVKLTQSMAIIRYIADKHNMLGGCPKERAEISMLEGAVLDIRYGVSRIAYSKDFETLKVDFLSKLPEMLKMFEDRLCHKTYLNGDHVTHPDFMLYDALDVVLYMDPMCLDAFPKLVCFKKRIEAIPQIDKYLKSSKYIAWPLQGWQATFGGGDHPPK
Chain of Flag-tagged Beclin-1 (wild type) (chain, as listed by the source): as the sequence (chain, as listed by the source) above

Protein | in vitro kinase assay, 33P incorporation (X-ray film) [1] | in vitro kinase assay, 33P incorporation (X-ray film) [2] | in vitro kinase assay, 33P incorporation (X-ray film) [3] | phosphorylation site mapping by mass spectrometry [3] | peptide phosphorylation, filter assay counts [4] | peptide phosphorylation, filter assay counts against substrate concentration [5]
Flag-tagged DAPk (full length) (protein) MTVFRQENVDDYYDTGEELGSGQFAVVKKCREKSTGLQYAAKFIKKRRTKSSRRGVSREDIEREVSILKEIQHPNVITLHEVYENKTDVILILELVAGGELFDFLAEKESLTEEEATEFLKQILNGVYYLHSLQIAHFDLKPENIMLLDRNVPKPRIKIIDFGLAHKIDFGNEFKNIFGTPEFVAPEIVNYEPLGLEADMWSIGVITYILLSGASPFLGDTKQETLANVSAVNYEFEDEYFSNTSALAKDFIRRLLVKDPKKRMTIQDSLQHPWIKPKDTQQALSRKASAVNMEKFKKFAARKKWKQSVRLISLCQRLSRSFLSRSNMSVARSDDTLDEEDSFVMKAIIHAINDDNVPGLQHLLGSLSNYDVNQPNKHGTPPLLIAAGCGNIQILQLLIKRGSRIDVQDKGGSNAVYWAARHGHVDTLKFLSENKCPLDVKDKSGEMALHVAARYGHADVAQLLCSFGSNPNIQDKEEETPLHCAAWHGYYSVAKALCEAGCNVNIKNREGETPLLTASARGYHDIVECLAEHGADLNACDKDGHIALHLAVRRCQMEVIKTLLSQGCFVDYQDRHGNTPLHVACKDGNMPIVVALCEANCNLDISNKYGRTPLHLAANNGILDVVRYLCLMGASVEALTTDGKTAEDLARSEQHEHVAGLLARLRKDTHRGLFIQQLRPTQNLQPRIKLKLFGHSGSGKTTLVESLKCGLLRSFFRRRRPRLSSTNSSRFPPSPLASKPTVSVSINNLYPGCENVSVRSRSMMFEPGLTKGMLEVFVAPTHHPHCSADDQSTKAIDIQNAYLNGVGDFSVWEFSGNPVYFCCYDYFAANDPTSIHVVVFSLEEPYEIQLNQVIFWLSFLKSLVPVEEPIAFGGKLKNPLQVVLVATHADIMNVPRPAGGEFGYDKDTSLLKEIRNRFGNDLHISNKLFVLDAGASGSKDMKVLRNHLQEIRSQIVSVCPPMTHLCEKIISTLPSWRKLNGPNQLMSLQQFVYDVQDQLNPLASEEDLRRIAQQLHSTGEINIMQSETVQDVLLLDPRWLCTNVLGKLLSVETPRALHHYRGRYTVEDIQRLVPDSDVEELLQILDAMDICARDLSSGTMVDVPALIKTDNLHRSWADEEDEVMVYGGVRIVPVEHLTPFPCGIFHKVQVNLCRWIHQQSTEGDADIRLWVNGCKLANRGAELLVLLVNHGQGIEVQVRGLETEKIKCCLLLDSVCSTIENVMATTLPGLLTVKHYLSPQQLREHHEPVMIYQPRDFFRAQTLKETSLTNTMGGYKESFSSIMCFGCHDVYSQASLGMDIHASDLNLLTRRKLSRLLDPPDPLGKDWCLLAMNLGLPDLVAKYNTSNGAPKDFLPSPLHALLREWTTYPESTVGTLMSKLRELGRRDAADFLLKASSVFKINLDGNGQEAYASSCNSGTSYNSISSVVSR | The phosphorylation by Flag-tagged (60 ng) DAPk was also observed when Flag-tagged Beclin-1 (250 ng), immunoprecipitated from HEK293T cells, was used as a substrate | GST-Beclin-1, but not GST alone, was phosphorylated by DAPk | GST-Beclin-1, but not GST alone, was phosphorylated by DAPk | two phosphorylation sites were identified with good accuracy ... a phosphorylation on S104 or T108, and the second was identified as Thr119 | – | –
DAPk's catalytic domain (DK1), bacterially purified (protein) MTVFRQENVDDYYDTGEELGSGQFAVVKKCREKSTGLQYAAKFIKKRRTKSSRRGVSREDIEREVSILKEIQHPNVITLHEVYENKTDVILILELVAGGELFDFLAEKESLTEEEATEFLKQILNGVYYLHSLQIAHFDLKPENIMLLDRNVPKPRIKIIDFGLAHKIDFGNEFKNIFGTPEFVAPEIVNYEPLGLEADMWSIGVITYILLSGASPFLGDTKQETLANVSAVNYEFEDEYFSNTSALAKDFIRRLLVKDPKKRMTIQDSLQHPWIKPKDTQQALS | – | – | – | – | Changing Thr119 to alanine strongly inhibited the extent of peptide phosphorylation | DAPk phosphorylates Beclin's BH3 peptide in a dose-dependent manner
